According to patent US20210085786A1:

Target: receptor tyrosine kinase-like orphan receptor 1 (ROR1) (human) (UniProt Q01973)
Assay: flow cytometry (FSC against control stain) of PDX tumour cells stained with the control antibody, same ROR1+ gate

Chain of UniProt Q01973 (Q01973 30-937): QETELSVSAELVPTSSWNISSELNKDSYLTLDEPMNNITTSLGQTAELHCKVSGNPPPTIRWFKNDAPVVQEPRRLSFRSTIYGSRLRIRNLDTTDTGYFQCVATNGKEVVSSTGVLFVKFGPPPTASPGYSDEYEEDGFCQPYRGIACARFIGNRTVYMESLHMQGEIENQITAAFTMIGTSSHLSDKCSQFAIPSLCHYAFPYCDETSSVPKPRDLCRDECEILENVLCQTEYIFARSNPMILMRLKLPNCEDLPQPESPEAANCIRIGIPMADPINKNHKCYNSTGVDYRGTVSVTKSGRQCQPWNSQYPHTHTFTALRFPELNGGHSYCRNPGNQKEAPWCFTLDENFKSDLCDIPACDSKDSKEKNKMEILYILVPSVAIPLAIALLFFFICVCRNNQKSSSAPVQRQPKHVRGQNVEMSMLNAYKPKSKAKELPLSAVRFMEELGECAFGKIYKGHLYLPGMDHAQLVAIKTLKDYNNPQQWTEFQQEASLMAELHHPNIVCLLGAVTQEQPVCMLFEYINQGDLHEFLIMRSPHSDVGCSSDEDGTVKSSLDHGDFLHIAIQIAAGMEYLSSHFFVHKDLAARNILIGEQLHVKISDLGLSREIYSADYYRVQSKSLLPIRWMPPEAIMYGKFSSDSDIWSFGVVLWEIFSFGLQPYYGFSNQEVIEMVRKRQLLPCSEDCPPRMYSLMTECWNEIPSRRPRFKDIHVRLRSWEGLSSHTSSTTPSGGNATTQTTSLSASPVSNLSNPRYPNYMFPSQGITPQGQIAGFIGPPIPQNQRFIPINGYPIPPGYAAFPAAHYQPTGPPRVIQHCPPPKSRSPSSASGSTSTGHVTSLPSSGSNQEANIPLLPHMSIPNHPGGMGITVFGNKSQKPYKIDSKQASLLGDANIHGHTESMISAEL

% of cells in the ROR1+ gate: 0.7%
Substance: Control (antibody)
